Data: paper PMC6854463, “Structural Basis for Broad HIV-1 Neutralization by the MPER-Specific Human Broadly Neutralizing Antibody LN01” (Cell Host & Microbe, 2019)
Numbering of substitutions follows the chain as printed. Several values for one entry are separate records, joined by “and”; a condition that tells them apart may be missing. Identical values can stand only once.

B1: LN01 gH/UCA (antibody, V domains shown)
VH: QLQLQESGPGLVKPSETLSLTCTVSGGSISSSSYYWGWIRQPPGKGLEWIGSIYYSGSTYYNPSLKSRVTISVDTSKNQFSLKLSSVTAADTAVYYCVRMPSHGFWSTSFSYWYFDLWGRGTLVTVSS
VL: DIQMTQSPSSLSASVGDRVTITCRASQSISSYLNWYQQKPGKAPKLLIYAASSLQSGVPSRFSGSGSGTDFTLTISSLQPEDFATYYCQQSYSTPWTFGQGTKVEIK
notes: IgG; source: Expi293F, transient transfection (PEI), purified by protein A chromatography
B2: LN01 UCA/gL (antibody, V domains shown)
VH: B1 VH with T108G, S109Y
VL: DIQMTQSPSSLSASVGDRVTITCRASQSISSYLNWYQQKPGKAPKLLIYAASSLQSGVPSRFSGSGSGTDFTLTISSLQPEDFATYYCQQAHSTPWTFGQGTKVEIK
notes: as for B1
B3: LN01 UCA/sL (antibody, V domains shown)
VH: B1 VH with T108G, S109Y
VL: DIQMTQSPSSLSASVGDKVTITCRASQSVTKYLNWYQFKTGQAPRILIYGTYTLLSGVSPRFSGAGSGSLYTLTITNIQPEDFATYYCQQAHSTPWTFGQGTHVAAN
notes: as for B1
B4: LN01 gH/gL (antibody, V domains shown)
VH: B1 VH
VL: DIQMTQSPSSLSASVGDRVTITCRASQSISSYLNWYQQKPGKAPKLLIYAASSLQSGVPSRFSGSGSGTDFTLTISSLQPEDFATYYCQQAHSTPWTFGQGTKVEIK
notes: as for B1
B5: LN01 gH/sL (antibody, V domains shown)
VH: B1 VH
VL: B3 VL
notes: as for B1
B6: LN01 UCA/UCA (antibody, V domains shown)
VH: B1 VH with T108G, S109Y
VL: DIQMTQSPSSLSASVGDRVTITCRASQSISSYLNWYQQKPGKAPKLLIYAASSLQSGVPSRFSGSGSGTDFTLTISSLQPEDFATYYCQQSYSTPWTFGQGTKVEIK
notes: also called the UCA version of LN01; source: Expi293F, transient transfection (PEI), purified by protein A chromatography
B7: LN01 sH/gL (antibody, V domains shown)
VH: QVQLEESGPGLVQPWGTLSLTCRVSGDSVSNDNYYWAWIRQTPGRELQVIGTIYYSGTTYYNPSLRNRVTISLDKSVNVVSLRLGSVSAADTAQYYCVRMPSHGFWSTSFSYWYFDLWGRGHFVAVSW
VL: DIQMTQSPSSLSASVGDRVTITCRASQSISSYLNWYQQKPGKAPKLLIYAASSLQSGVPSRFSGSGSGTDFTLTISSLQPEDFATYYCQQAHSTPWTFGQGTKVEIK
notes: as for B1
B8: LN01 sH/gL-FR (antibody, V domains shown)
VH: B7 VH
VL: DIQMTQSPSSLSASVGDRVTITCRASQSVTKYLNWYQQKPGKAPKLLIYGTYSLQSGVPSRFSGSGSGTDFTLTISSLQPEDFATYYCQQAHSTPWTFGQGTKVEIK
notes: as for B1
B9: LN01 recombinant IgG1 monoclonal antibody (antibody, V domains shown)
VH: B7 VH
VL: B3 VL
notes: also called LN01 IgG1; IgG1 LN01 antibody; source: Expi293F, transient transfection (PEI), purified by protein A chromatography

How the values were obtained:
Conditions in all cases: both partners purified
[1] = target: T1, MPER-TM2 (gp41 residues 630-711, containing the complete TM region) (HIV-1 group M; Env Q74599 (HXB2-like), …, UniProt Q74599); test: BLI; Octet Red; biotinylated IgG on Streptavidin biosensors; MPER-TM2 in 25 mM HEPES pH 7.5, 150 mM NaCl, 0.1 % Fos-Choline-12, 25°C; global fit 1:1 model or steady state analysis
T1 construct: not shown: His-tag, N-terminal, cleaved; flag-tag, N-terminal, cleaved

[2] = target: T1, MPER-TM2 (gp41 residues 630-711, …); test: SPR
[3] = target: T2, MPER-TM1 peptide (gp41 residues 671-689) (HIV-1, strain  (6SNC maps to …)); test: SPR
T2 construct: also called gp41 MPER-TM1; source: synthetic peptide (Smart Bioscience, Grenoble)

| Binder | Kd [1] | binding result [1] | further results |
| --- | --- | --- | --- |
| B1 | 4700 ± 1700 nM |  |  |
| B2 |  | no binding |  |
| B3 |  | no binding |  |
| B4 | 1400 nM |  |  |
| B5 | 6.2 ± 0.02 nM |  |  |
| B6 |  | no binding |  |
| B7 | 453 ± 82 nM |  |  |
| B8 | 7 ± 0.03 nM |  |  |
| B9 | 2.3 ± 0.01 nM |  | Kd [2]: 13 nM; Kd [3]: 161 nM and 170 nM |
